This note sets out measurements from patent CN116041526A.

The target of this assay is 重组蛋白SUMO-IgT CH1-CH2 (recombinant grass carp IgT heavy chain constant region CH1-CH2 domains fused to SUMO, from E. coli) (草鱼 (Ctenopharyngodon idella)). Nature of the assay: titre of the antibody purified from ascites; assay not given, taken as ELISA on SUMO-IgT CH1-CH2.

B1: 鼠抗草鱼IgT单克隆抗体 (mouse anti-grass carp IgT monoclonal antibody, secreted by hybridoma cell line IgT-6H6G11, CCTCC NO: C202288) (antibody, IgG2a, V domains shown)
VH: QVQLVETGGGLVRPGNSLKLSCVTSGFTFSNYRMHWLRQPPGKRLEWIAVITVKSDNYRARYAESVKGRFTISRDDSKSSVYLQMNRLREEDTATYFCSREGPYYGNWVAMDYWGQGTSVTVSS
VL: DVVLTQSPATLSVTPGDRVSLSCRASQSISNYLHWYQQKSHESPRLLIKYASQSISGIPSRFSGSGSGTGFTLSINSVETEDFGMYFCQQSHSWPYTFGGGTKLEIK
For the molecule B1, the 效价 (titre) (dilution (1:x)) worked out at 64000.
